Patent US20180016352A1 (published 2018)

What was measured:
Assay in all cases: indirect ELISA, recombinant receptor coated, anti-c-myc HRP
[1] = molecular target: recombinant EphA2 receptor (UniProt P29317 25-534, limits assumed)
Method: (§1) The target binding of the BsAbs was evaluated by indirect ELISA methods using PEG polymer and recombinant target proteins immobilized on ELISA plates. Individual wells of a 96 well Maxisorp plate were coated with 100 μL of 10 μg/mL of polymer (polyethylene glycol monomethyl ether methacrylate) or 10 μg/mL of target recombinant receptor (EphA2, VEGFR2, Mesothelin and EGFR) for 16-20 hr at 4C. PEG and target receptors were diluted in phosphate buffered saline (PBS pH 7.4). […] The blocker was decanted and 100 μL of BsAb, either in cell culture supernatant or purified protein stored in PBS, was added to each well. The BsAb was incubated for 2 hr and then decanted. The wells were washed five times manually in PBST and 100 μL of HRP labeled anti-c-myc antibody diluted 1/5000 in blocker was added to each well and incubated for 30 mins. The c-myc antibody was then decanted and the wells washed again five times manually with PBST. One hundred microliters of TMB was added to all wells and incubated for 10-15 mins or until adequate color development was identified. The TMB colorimetric reaction was neutralized by adding 100 μL of 2M sulfuric acid. The colorimetric reactions in each well was analyzed at an absorbance of 450 nm using the Spectramax plate reader.

recombinant Mesothelin = recombinant Mesothelin (UniProt Q13421 296-580, limits assumed)
Sequence of recombinant Mesothelin (Q13421 other isoform, or with tags, fused parts or gaps limits assumed): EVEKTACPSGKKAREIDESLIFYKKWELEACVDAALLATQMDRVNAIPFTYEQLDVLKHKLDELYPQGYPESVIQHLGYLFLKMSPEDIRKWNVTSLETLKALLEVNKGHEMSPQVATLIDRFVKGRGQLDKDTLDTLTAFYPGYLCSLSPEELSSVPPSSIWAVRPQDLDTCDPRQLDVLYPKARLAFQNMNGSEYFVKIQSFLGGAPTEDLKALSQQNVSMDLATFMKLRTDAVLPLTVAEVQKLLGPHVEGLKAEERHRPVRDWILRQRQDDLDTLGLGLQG
Method: as §1

recombinant EGFR = molecular target: T1, recombinant EGFR (UniProt P00533 25-645, limits assumed)
T1 construct: It may be the same reagent as rEGFR-hFc; also called rEGFR
Method: as §1

Measured: binding result

Sequence of recombinant EphA2 receptor (P29317 25-534 limits assumed): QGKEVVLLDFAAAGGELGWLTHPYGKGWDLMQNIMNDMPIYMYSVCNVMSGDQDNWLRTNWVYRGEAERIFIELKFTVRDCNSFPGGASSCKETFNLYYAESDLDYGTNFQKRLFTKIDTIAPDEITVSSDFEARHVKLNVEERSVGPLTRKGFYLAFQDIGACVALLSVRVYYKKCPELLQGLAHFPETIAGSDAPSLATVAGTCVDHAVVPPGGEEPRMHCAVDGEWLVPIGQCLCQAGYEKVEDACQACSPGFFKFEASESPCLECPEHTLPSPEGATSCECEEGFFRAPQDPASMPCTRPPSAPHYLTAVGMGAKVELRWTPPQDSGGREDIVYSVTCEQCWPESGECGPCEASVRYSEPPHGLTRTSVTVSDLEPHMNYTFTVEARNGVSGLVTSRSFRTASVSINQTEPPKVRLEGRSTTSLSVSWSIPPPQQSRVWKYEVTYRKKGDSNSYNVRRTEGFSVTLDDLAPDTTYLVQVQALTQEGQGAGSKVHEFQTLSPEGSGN

B1: VEGF-15.2 (BsAb targeting VEGFR2) (other)
chain: HHHHHHEVVKFMDVYQRSYCHPIETLVDIFQEYPDEIEYIFKPSCVPLMRCGGCCNDEGLECVPTEESNITMQIMRIKPHQGQHIGEMSFLQHNKCECRPKKDGSTSGSGKSSEGKGEVVKFMDVYQRSYCHPIETLVDIFQEYPDEIEYIFKPSCVPLMRCGGCCNDEGLECVPTEESNITMQIMRIKPHQGQHIGEMSFLQHNKCECRPKKDSGGGGSEVKLEESGGGLVQPGGSMKLSCVASGFTFSNYWMNWVRQSPEKGLEWVTEIRSKSNNYATHYAESVKGRFTISRDDSKGSVYLQMNNLRAEDTGIYYCSNRYYWGQGTLVTVSAGGGGSGGGGSGGGGSDIVMTQSHKFMSTSVRDRVTITCKASQDVNTSVAWYQQKPGQSPKLVIYWASTRHTGVPDRFTGSGSGTDFTLTISNVQSEDLADYFCLQYINYPYTFGGGTKLEIKEQKLISEEDLN
no binding: all assays above
